{"source": "paper PMC8049743", "about": "“Discovery and characterization of a novel family of prokaryotic nanocompartments involved in sulfur metabolism” (eLife, 2021)", "molecules": {"B1": {"name": "Thermotoga maritima Family 1 encapsulin shell protein (natural protein)", "chain": "MEFLKRSFAPLTEKQWQEIDNRAREIFKTQLYGRKFVDVEGPYGWEYAAHPLGEVEVLSDENEVVKWGLRKSLPLIELRATFTLDLWELDNLERGKPNVDLSSLEETVRKVAEFEDEVIFRGCEKSGVKGLLSFEERKIECGSTPKDLLEAIVRALSIFSKDGIEGPYTLVINTDRWINFLKEEAGHYPLEKRVEECLRGGKIITTPRIEDALVVSERGGDFKLILGQDLSIGYEDREKDAVRLFITETFTFQVVNPEALILLKF", "notes": "Family 1 encapsulin shell protein, Thermotoga maritima; also called Tm Enc; T. maritima encapsulin; source: purified"}, "B2": {"name": "SrpI encapsulin shell protein with C-terminal 6X-His tag, from inclusion bodies, refolded (natural protein, Synechococcus elongatus PCC 7942)", "chain": "MTDNAPQLALRDVAARQLANATKTVPQLRTITPRWLVRLLHWTPVEAGIYRVNQVKDASQITVACSERDESELPETFVDYIDNPREYLLSAVNTVVDVHTRISDLYSNPHDQIREQLRLTIEIMKERQESELINSREYGLLNNVAPGQLVHTRNGAPTPDDLDELLIRVWKEPAFFLAHPQAIAAFGRECTRRGVPPATVSLFGSSFITWRGVPLIPSDKVPLENGKTKILLLRVGESRQGVVGLYQPNLPGEQGMGLSVRFMGINRKALASYLVSLYCSLAVLTDDALAVLDNVDVTQYHTYRYN", "notes": "monomer 35 kDa; T = 1 icosahedral capsid of 60 subunits by cryo-EM; also called apo-SrpI; holo-SrpI (when loaded with CyD); copies: 60"}, "B3": {"name": "CyD N-terminal domain (residues 1–225) fused to sfGFP (protein)", "chain": "MTNTVPSVPAVPNLPTQSDPFFNERSLEQLTQTVLQDLQQAGVSEAESAPTPLSVPTPALPTTSALAVPQSPTAIANVPAPPSSIDERSLAQLAQAVLQDPQLASAIASIFPSVTLPTSASVPRSVPVPPSFLPSLVPTAPPIHDEVGVIPHHQLPVPSQPTPAGLQQTASSKSGSGFYFIDEQVETAIAALHSNLTVFPQLTTSSIPTLTGAHSAGAVGFDIHQ"}}, "key": {"[1]": {"molecular_target": "T1, CyD (cysteine desulfurase, unencapsulated) (Synechococcus elongatus, UniProt Q8KUU5)", "T1 construct": "full length incl; 225-residue N-terminal domain; N-terminal His-SUMO tag cut off; E. coli BL21(DE3) LOBSTR; 68 kDa; PLP enzyme", "T1 sequence (Q8KUU5 1-626)": "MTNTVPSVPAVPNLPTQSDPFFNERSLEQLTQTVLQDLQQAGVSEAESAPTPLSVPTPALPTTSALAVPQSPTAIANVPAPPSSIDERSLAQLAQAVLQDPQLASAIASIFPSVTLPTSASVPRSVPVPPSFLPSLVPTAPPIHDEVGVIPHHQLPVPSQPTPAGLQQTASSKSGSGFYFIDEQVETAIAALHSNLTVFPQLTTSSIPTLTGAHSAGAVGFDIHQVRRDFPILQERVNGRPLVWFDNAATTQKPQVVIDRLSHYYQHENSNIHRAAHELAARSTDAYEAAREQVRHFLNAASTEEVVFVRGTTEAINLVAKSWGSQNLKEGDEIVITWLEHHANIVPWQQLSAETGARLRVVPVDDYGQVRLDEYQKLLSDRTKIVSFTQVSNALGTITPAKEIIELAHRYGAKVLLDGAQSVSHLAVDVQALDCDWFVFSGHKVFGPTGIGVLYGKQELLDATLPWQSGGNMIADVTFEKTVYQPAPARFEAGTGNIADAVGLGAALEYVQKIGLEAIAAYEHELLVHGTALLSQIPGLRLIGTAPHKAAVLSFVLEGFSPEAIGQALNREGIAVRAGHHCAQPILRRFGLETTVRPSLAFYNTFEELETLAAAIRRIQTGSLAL", "assay": "coupled alanine dehydrogenase assay, NADH fluorescence", "format": "biochemical", "conditions": "25 mM Tris-HCl pH 8, 150 mM NaCl, 5 mM NAD+, 25 °C, 200 nM enzyme"}, "[2]": {"molecular_target": "T2, ΔNTD-CyD (unencapsulated) (Synechococcus elongatus, UniProt Q8KUU5)", "T2 construct": "N-terminal His-SUMO tag cut off; E. coli; 45 kDa", "T2 sequence (Q8KUU5 226-626 limits assumed)": "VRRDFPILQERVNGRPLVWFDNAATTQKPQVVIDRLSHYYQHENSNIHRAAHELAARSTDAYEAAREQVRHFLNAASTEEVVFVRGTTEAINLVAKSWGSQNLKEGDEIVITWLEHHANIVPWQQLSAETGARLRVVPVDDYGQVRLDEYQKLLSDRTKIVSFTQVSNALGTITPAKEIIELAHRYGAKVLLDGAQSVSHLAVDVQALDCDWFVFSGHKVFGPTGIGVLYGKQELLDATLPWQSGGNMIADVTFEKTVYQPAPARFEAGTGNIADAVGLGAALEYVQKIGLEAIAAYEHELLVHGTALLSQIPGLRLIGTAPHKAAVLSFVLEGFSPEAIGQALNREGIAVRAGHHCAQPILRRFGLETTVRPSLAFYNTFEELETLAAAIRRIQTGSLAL", "assay": "coupled alanine dehydrogenase assay, NADH fluorescence", "format": "biochemical", "conditions": "25 mM Tris-HCl pH 8, 150 mM NaCl, 5 mM NAD+, 25 °C, 200 nM enzyme"}, "[3]": {"molecular_target": "T3, encapsulated CyD (CyD-loaded SrpI encapsulin) (Synechococcus elongatus, UniProt Q8KUU5)", "T3 construct": "E. coli; 1-2 CyD copies seen in difference map; with Type 2A encapsulin shell protein SrpI", "T3 sequence (Q8KUU5 1-626)": "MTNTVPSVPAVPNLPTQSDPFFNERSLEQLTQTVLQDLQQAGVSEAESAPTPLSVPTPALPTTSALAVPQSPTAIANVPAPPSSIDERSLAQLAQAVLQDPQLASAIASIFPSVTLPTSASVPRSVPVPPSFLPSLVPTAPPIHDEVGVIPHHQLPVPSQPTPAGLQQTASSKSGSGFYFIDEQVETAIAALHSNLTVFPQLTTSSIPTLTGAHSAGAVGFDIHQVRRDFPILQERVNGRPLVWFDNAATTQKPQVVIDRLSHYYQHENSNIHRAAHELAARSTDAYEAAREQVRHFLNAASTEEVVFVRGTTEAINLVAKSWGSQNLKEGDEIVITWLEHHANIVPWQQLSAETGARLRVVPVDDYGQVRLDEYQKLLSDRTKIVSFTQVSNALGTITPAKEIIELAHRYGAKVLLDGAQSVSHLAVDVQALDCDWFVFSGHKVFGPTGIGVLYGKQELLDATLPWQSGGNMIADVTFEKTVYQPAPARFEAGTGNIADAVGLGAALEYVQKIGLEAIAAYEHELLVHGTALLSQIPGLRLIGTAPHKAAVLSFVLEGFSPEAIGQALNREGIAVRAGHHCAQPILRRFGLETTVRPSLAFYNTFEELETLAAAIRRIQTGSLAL", "T3 sequence (Q55032 1-306 partner)": "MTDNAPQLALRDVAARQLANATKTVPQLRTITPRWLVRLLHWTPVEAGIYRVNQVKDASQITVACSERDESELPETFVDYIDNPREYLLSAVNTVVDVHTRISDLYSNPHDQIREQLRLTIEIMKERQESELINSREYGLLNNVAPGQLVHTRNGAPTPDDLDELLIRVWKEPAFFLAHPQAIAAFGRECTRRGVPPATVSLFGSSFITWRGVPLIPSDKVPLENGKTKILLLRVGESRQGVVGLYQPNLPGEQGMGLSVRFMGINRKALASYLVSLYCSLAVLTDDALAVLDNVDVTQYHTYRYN", "assay": "coupled alanine dehydrogenase assay, NADH fluorescence", "format": "biochemical", "conditions": "25 mM Tris-HCl pH 8, 150 mM NaCl, 5 mM NAD+, 25 °C, 200 nM enzyme; CyD encapsulated in SrpI shell"}, "[4]": {"molecular_target": "SrpI encapsulin shell protein with C-terminal 6X-His tag, from inclusion bodies, refolded (Synechococcus elongatus PCC 7942) (UniProt Q55032)", "assay": "negative stain TEM; apo-SrpI and holo-SrpI (CyD loaded by refolding) at 300 nM in 50 mM CAPS pH 10, 250 mM arginine, 150 mM NaCl; uranyl formate; 3D reconstruction without symmetry, ~18 Å; difference map"}, "[5]": {"molecular_target": "the molecule itself", "assay": "non-denaturing SDS-PAGE; purified encapsulin, samples not heat-denatured compared with samples heated at 95°C for 15 min"}, "[6]": {"molecular_target": "the molecule itself", "assay": "cryo-EM structure; purified holo-SrpI, 2 mg/mL in 50 mM CAPS pH 10, 250 mM arginine, 150 mM NaCl, 0.05% NP-40; 2.2 Å; symmetry expansion and focused classification for cargo density"}, "[7]": {"molecular_target": "T4, SrpI encapsulin shell protein with C-terminal 6X-His tag, from inclusion bodies, refolded (Synechococcus elongatus (strain ATCC …, UniProt Q55032))", "T4 chain": "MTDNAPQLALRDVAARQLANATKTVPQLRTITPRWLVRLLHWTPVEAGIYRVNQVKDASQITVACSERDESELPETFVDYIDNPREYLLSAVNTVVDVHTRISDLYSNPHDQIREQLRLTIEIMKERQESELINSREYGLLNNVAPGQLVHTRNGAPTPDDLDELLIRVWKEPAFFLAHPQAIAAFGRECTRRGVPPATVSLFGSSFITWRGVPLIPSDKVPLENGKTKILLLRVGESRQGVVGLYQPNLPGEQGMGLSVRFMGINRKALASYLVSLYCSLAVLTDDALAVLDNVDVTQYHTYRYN", "assay": "in vitro cargo loading (co-refolding), SEC co-elution and SDS-PAGE/sfGFP fluorescence; shell unfolded in GuHCl and refolded by dilution in the presence of cargo (encapsulation; CAPS pH 10, 250 mM arginine, glycerol, DTT); NTD fused to sfGFP"}}, "data": [{"molecule": "N[C@@H](CS)C(=O)O", "note": "[L-cysteine]", "values": [{"measurement": "coupled alanine dehydrogenase assay, NADH fluorescence", "setting": "[1]", "value": "Unencapsulated CyD was active towards a cysteine substrate"}, {"measurement": "coupled alanine dehydrogenase assay, NADH fluorescence", "setting": "[2]", "value": "the N-terminal domain had no effect on catalytic activity"}, {"measurement": "coupled alanine dehydrogenase assay, NADH fluorescence", "setting": "[3]", "value": "the encapsulated CyD was roughly sevenfold more active than unencapsulated CyD"}]}, {"molecule": "Full-length cysteine desulfurase CyD (Synpcc7942_B2661), purified (enzyme)", "values": [{"measurement": "copies of CyD in the difference density of the loaded compartment", "setting": "[4]", "value": "1 to 2", "unit": "copies"}]}, {"molecule": "B1", "values": [{"measurement": "binding result", "setting": "[5]", "value": "binds"}]}, {"molecule": "B2", "values": [{"measurement": "stoichiometry N", "setting": "[6]", "value": 60, "unit": "subunits"}]}, {"molecule": "B3", "values": [{"measurement": "binding result", "setting": "[7]", "value": "binds"}]}]}
